Numbering of substitutions follows the chain as printed.

The term EC50 denotes the midpoint of the concentration-response curve. Low readings indicate an effect from little substance, high ones a need for much substance. What is called Kd is a measure of binding affinity in units of concentration. The term IC50 denotes the concentration that gives 50% inhibition.

To fix the notation:
B1: Ref062 [NGM707, cross-specific] (antibody, from another filing, V domains shown)
VH: QVQLVQSGAEVKKPGASVKVSCKASGYTFTDYYINWVRQAPGQGLEWMGNVNPNDGGTTYNQKFKGRVTMTTDTSTSTAYMELRSLRSDDTAVYYCARREIYFYGTIYYYAMDYWGQGTLVTVSS
VL: DIQLTQSPSFLSASVGDRVTITCRASESVDYYGNSFMYWYQQKPGKAPKLLIYFASNLESGVPSRFSGSGSGTEFTLTISSLQPEDFATYYCQQNNEDPWTFGGGTKVEIKR
B2: Ref047 [MK-4830, LILRB2 specific] (antibody, from another filing, V domains shown)
VH: EVQLQQWGAGLLKPSETLSLTCAVYGGSFSGYYWSWIRQPPGKGLEWIGEINHAGSTNYNPSLKSRVTISVDTSKNQFSLKLSSVTAADTAVYYCARLPTRWVTTRYFDLWGRGTLVTVSS
VL: ESVLTQPPSVSGAPGQRVTISCTGSSSNIGAGYDVHWYQQLPGTAPKLLIYGDSNRPSGVPDRFSVSKSGASASLAITGLQAEDEADYYCQSFDNSLSAYVFGGGTQLTVL
B3: A-045 (antibody, V domains shown)
VH: QVQLVQSGAEVKKPGSSVKVSCKASGGTFQSQAFAWVRQAPGQGLEWMGSIIPGFSTANYAQKFQGRVTITADESTSTAYMELSSLRSEDTAVYYCAKDLGTYSSGWPYYYGMDVWGQGTTVTVSS
VL: SYELTQPPSVSVSPGQTASITCSGDKLGDKYASWYQQKPGQSPVLVIYQDSKRPSGIPERFSGSNSGNTATLTISGTQAEDEADYYCQLTHLTIYVFGGGTKLTVL
notes: tested as IgG; HC of A-010 and LC of A-036
B4: A-047 (antibody, V domains shown)
VH: QVQLVQSGAEVKKPGSSVKVSCKASGYTFSKSAMSWVRQAPGQGLEWMGGIVPKFHTSVYAQKFQGRVTITADESTSTAYMELSSLRSEDTAVYYCAKGPPVGSSSWYTDWYFDLWGRGTLVTVSS
VL: SYELTQPPSVSVSPGQTASITCSGDKLGDKYASWYQQKPGQSPVLVIYQDSKRPSGIPERFSGSNSGNTATLTISGTQAEDEADYYCSLYGAGHTVVFGGGTKLTVL
notes: tested as IgG
B5: A-038 (antibody, V domains shown)
VH: B4 VH with Y27G, K31S, S32Y, M34I, V52I, K54I, H56G, S58A, V59N
VL: B4 VL
notes: tested as IgG
B6: A-040 (antibody, V domains shown)
VH: B4 VH with Y27G, K31S, S32Y, M34I, V52I, K54I, H56G, S58A, V59N
VL: B4 VL with A92P, G93A, V96G
notes: tested as IgG
B7: A-039 (antibody, V domains shown)
VH: B4 VH with Y27G, K31S, S32Y, M34I, V52I, K54I, H56G, S58A, V59N
VL: B4 VL with S88A, A92G
notes: tested as IgG
B8: A-041 (antibody, V domains shown)
VH: B4 VH with Y27G, K31S, S32Y, M34I, V52I, K54I, H56G, S58A, V59N
VL: B4 VL with L89S, A92S, H94L
notes: tested as IgG
B9: A-048 (antibody, V domains shown)
VH: B4 VH
VL: B4 VL with S88A, A92G
notes: tested as IgG

T1 sequence (Q8N423 22-460 limits assumed): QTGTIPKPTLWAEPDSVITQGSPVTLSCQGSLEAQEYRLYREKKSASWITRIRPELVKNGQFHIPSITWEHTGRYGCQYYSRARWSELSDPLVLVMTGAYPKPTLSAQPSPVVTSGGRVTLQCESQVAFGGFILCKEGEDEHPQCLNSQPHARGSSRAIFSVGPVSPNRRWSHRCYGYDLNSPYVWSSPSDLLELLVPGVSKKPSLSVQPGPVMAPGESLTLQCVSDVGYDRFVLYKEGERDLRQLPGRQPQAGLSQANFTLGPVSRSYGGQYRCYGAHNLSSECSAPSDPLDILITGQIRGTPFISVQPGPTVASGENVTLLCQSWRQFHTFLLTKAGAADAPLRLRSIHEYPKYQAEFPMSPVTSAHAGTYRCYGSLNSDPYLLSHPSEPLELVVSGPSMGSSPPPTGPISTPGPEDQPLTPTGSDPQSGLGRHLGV
T2 sequence (Q8NHL6 24-461 limits assumed): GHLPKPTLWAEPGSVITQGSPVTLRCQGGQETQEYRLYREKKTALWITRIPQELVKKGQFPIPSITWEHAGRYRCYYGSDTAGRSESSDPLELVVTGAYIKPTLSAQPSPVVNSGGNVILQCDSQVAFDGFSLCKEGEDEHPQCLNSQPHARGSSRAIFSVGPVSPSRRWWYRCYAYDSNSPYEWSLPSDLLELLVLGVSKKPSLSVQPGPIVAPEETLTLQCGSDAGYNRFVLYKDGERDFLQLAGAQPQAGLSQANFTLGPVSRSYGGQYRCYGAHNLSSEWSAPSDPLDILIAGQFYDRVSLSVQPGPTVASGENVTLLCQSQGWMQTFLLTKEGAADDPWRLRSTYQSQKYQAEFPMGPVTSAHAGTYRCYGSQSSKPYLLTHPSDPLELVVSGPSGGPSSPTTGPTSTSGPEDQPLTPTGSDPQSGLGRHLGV
T4 sequence (Q8N6C8 24-439 limits assumed): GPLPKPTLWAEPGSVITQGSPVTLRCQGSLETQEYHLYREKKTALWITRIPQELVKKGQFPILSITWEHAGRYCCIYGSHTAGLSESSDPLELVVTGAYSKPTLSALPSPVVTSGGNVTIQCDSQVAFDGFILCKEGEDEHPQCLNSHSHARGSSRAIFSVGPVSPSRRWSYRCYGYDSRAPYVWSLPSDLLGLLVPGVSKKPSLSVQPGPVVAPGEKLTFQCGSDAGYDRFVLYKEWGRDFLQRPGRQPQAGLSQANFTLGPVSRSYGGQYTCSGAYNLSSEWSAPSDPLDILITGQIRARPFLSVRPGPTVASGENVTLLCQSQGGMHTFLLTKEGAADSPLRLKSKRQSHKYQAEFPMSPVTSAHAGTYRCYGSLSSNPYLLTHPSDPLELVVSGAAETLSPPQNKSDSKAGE
Sequence of LILRB1 on transiently transfected Expi293 cells (Q8NHL6 24-650 limits assumed): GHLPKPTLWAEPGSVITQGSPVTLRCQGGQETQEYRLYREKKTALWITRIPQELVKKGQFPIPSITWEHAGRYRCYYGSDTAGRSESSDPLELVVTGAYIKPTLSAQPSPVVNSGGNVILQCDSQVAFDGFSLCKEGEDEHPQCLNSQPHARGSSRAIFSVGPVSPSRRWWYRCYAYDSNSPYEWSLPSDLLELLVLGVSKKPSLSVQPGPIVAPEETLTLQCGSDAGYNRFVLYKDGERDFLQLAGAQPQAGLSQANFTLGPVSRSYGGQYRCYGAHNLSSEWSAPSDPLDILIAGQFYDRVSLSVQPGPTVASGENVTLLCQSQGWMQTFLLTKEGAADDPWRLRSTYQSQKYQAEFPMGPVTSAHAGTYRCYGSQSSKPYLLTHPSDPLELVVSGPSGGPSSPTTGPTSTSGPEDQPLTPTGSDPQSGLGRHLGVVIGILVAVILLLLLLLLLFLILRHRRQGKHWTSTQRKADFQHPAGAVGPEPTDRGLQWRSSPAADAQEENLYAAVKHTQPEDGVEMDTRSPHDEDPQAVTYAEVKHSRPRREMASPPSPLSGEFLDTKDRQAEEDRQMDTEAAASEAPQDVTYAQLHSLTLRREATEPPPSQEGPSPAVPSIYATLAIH
Sequence of LILRB2 on primary monocytes (human) (Q8N423 22-597 limits assumed): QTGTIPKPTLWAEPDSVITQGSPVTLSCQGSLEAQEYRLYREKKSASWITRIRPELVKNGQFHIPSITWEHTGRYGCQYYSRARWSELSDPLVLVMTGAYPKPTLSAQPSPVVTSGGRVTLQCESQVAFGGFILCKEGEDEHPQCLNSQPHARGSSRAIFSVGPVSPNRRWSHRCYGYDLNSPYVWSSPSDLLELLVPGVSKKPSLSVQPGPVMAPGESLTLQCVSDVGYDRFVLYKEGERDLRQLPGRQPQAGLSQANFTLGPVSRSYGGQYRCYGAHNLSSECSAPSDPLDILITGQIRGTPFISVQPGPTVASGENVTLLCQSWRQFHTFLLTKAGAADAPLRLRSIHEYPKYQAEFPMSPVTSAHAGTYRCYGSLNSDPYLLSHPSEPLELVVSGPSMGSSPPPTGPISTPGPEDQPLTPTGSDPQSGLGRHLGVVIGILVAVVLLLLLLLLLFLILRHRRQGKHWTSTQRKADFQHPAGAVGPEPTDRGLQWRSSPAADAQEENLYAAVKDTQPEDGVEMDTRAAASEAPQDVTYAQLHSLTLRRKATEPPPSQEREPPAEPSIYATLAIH
T5 sequence (Q8N149 24-483): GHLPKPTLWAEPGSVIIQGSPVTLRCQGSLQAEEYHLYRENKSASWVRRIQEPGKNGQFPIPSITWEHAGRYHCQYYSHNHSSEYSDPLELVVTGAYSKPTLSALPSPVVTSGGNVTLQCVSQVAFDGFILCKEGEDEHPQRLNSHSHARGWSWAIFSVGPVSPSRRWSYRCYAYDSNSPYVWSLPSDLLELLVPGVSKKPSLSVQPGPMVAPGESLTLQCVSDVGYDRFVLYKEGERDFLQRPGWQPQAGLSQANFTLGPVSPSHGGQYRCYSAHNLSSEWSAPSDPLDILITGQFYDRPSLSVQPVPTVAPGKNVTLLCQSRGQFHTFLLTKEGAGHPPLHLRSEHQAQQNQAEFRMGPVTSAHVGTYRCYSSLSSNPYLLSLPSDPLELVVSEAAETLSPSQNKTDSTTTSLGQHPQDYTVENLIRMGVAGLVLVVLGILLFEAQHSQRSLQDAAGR
Sequence of LILRA3 on transiently transfected Expi293 cells (human) (Q8N6C8 24-439 limits assumed): as the sequence (Q8N6C8 24-439 limits assumed) above

The target in one experiment is LILRA1 on transiently transfected Expi293 cells (human) (UniProt O75019). Nature of the experiment: flow cytometry, transfected Expi293 cells. (In general: A flow cytometer gives signals particle by particle.)
Sequence of LILRA1 on transiently transfected Expi293 cells (human) (O75019 17-489 limits assumed): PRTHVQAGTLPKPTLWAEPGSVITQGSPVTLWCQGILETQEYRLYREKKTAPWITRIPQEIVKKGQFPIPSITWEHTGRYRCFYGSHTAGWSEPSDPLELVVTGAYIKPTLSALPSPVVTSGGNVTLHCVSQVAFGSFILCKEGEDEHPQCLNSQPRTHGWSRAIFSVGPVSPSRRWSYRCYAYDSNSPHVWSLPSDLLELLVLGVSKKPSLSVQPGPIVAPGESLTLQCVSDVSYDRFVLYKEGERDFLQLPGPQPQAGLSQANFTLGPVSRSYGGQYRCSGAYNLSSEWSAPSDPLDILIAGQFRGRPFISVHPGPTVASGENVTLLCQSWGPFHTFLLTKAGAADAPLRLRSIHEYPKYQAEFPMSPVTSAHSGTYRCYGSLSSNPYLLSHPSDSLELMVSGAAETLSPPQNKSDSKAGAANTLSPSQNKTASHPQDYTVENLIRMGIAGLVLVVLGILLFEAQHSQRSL
B1 registered an EC50 of 3.7 nM.

A further experiment has as its target LILRA3 on transiently transfected Expi293 cells (human) (UniProt Q8N6C8). Nature of the experiment: flow cytometry, transfected Expi293 cells.
In turn, B1 yielded an EC50 of 7.8 nM.

The target in a further experiment is LILRB1 on transiently transfected Expi293 cells (human) (UniProt Q8NHL6). Nature of the experiment: flow cytometry, transfected Expi293 cells.
Sequence of LILRB1 on transiently transfected Expi293 cells (human) (Q8NHL6 24-650 limits assumed): as the sequence (Q8NHL6 24-650 limits assumed) above
Regarding B1, the EC50 was found to be 9.1 nM. In other words, the single-digit nanomolar range.

A further experiment deals with LILRB2 on transiently transfected Expi293 cells (human) (UniProt Q8N423). Nature of the experiment: flow cytometry, transfected Expi293 cells.
Sequence of LILRB2 on transiently transfected Expi293 cells (human) (Q8N423 22-597 limits assumed): as the sequence (Q8N423 22-597 limits assumed) above
B1 displayed an EC50 of 17.3 nM.
Same read-out and setting: the same measure for B2: 1.7 nM.

For the next experiment, the target named is LILRB2 on Jurkat reporter cells (ILT4/HLA-G Blockade Bioassay Kit, Promega) (human) (UniProt Q8N423). In words: cell-based or functional assay.
Sequence of LILRB2 on Jurkat reporter cells (ILT4/HLA-G Blockade Bioassay Kit, Promega) (human) (Q8N423 22-597 limits assumed): as above
As for B1, the luminescence of LILRB2-expressing Jurkat reporter cells with HLA-G expressing APC/CHO-K1 cells (ILT4/HLA-G Blockade Bioassay) was found to be 0.9 nM.

A further experiment addresses T1, recombinant LILRB2 ECD (human, UniProt Q8N423 22-460).
T1 construct: also called biotinylated LILRB2 ECD
In words: competition ELISA (Example 3): biotinylated LILRB2 ECD with avidin-HRP pre-incubated with antibody 0.1-100 nM, residual binding to coated B2M-HLA-G-mouse IgG2a-Fc; blocked ligand HLA-G.
For the molecule “Ref065 [IO-108, LILRB2 specific] (antibody)”, the IC50 (read off the curve) was determined as 3 nM.

The next experiment addresses T2, recombinant LILRB1 ECD (human, UniProt Q8NHL6 24-461).
T2 construct: also called biotinylated LILRB1 ECD
In words: BLI, IgG on AHC sensor, ECD in solution. On the procedure: (§1) Briefly, IgGs were captured on anti-human capture (AHC) biosensors (Sartorius). […] Subsequently, the sensors were dipped into 1× Kinetics Buffer to measure the dissociation over 420 s. All sensorgrams were double referenced against 1× Kinetics Buffer and unloaded […] sensors to subtract sensor drifts and potential reference binding of the analytes. The affinities were determined by applying a 1:1 binding model.
Take B1: the dissociation constant (Kd) was found to be 0.5 nM.
Same read-out and setting: in the case of B3 it was 2.3 nM.
The same measure, in the same setting: the same measure for B4: 2.6 nM.
Turning to B5, the Kd was determined as 6.7 nM.
In the case of B6, the Kd was found to be 6.6 nM.
The same measure, in the same setting: in the case of B7 it was 21.6 nM; in that of B8, 17.5 nM.
Same read-out and setting: in the case of B9 it was 8.7 nM.

The target in another experiment is T1, recombinant LILRB2 ECD. In words: BLI, IgG on AHC sensor, ECD in solution. On the procedure: as §1
On the technique in general: Biolayer interferometry detects binding as a change in optical thickness at a sensor tip.
On to B1, for which the Kd was determined as 0.4 nM.
The same measure, in the same setting: the same measure for B3: 2.8 nM.
With B4, the Kd turned out to be 1.7 nM.
Still for that read-out and setting: the same measure for B5: 4.8 nM.
On the same count and under the same terms, in the case of B6 it was 0.3 nM; in that of B7, 13.7 nM.
For the molecule B8, the Kd was 5.8 nM.
Regarding B9, the Kd was 5.6 nM.
On the same count and under the same terms, the same measure for B2: 3.4 nM.

In a further experiment the target is T3, recombinant LILRA1 ECD (human, UniProt O75019 17-461).
T3 construct: whole canonical entry named; also called LILA1
T3 sequence (O75019 17-461 limits assumed): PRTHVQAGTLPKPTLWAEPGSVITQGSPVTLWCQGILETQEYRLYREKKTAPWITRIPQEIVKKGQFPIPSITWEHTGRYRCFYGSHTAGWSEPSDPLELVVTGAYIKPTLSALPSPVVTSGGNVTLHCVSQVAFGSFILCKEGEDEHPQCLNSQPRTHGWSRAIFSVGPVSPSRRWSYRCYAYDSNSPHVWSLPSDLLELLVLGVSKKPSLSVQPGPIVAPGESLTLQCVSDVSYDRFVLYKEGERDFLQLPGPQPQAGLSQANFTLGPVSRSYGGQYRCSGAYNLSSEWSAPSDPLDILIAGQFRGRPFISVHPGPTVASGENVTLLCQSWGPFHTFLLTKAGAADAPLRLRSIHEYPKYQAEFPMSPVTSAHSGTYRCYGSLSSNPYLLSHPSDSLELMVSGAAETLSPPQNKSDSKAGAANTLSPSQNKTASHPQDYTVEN
Nature of the experiment: BLI, IgG on AHC sensor, ECD in solution. On the procedure: as §1
B1: the dissociation constant Kd is 0.6 nM.
Same read-out and setting: the same measure for B4: 128 nM; for B5: 209 nM.
Same read-out and setting: in the case of B6 it was 51.6 nM; in that of B7, 1030 nM.
The same measure, in the same setting: the same measure for B8: 242 nM; for B9: 1070 nM.

Another experiment addresses T4, recombinant LILRA3 (human, UniProt Q8N6C8 24-439).
T4 construct: whole entry named; also called LILRA3 ECD; LILA3
In words: BLI, IgG on AHC sensor, ECD in solution. On the procedure:
as §1
B1: the Kd came to 1.4 nM.
As to B4, the Kd was 318 nM.
In the case of B5, the Kd was determined as 448 nM.
The same measure, in the same setting: in the case of B6 it was 345 nM; in that of B7, 1550 nM.
On the same count and under the same terms, in the case of B8 it was 465 nM.
B9: the equilibrium dissociation constant (Kd) is 1970 nM.

A further experiment concerns the target T5, LILRA2 on transiently transfected Expi293 cells (human, UniProt Q8N149 24-483).
T5 construct: whole, on cells
Nature of the experiment: flow cytometry, transfected Expi293 cells. On the procedure:
(§2) Non-transfected Expi293 cells were used as negative control. Cells were harvested and labeled with CellTraceViolet for multiplexing. […] Subsequently, cells were washed and stained with a secondary anti-human IgG labeled with AF647 for 30 minutes at 4° C. in the dark. Cells were washed again and mixed with 7-AAD viability dye before flow acquisition to test for surface binding.
B3: the binding result is given as “no binding”.

The target in another experiment is LILRB2 on transiently transfected Expi293 cells (human, UniProt Q8N423 22-597). Nature of the experiment: flow cytometry, transfected Expi293 cells. On the procedure: as §2
Sequence of LILRB2 on transiently transfected Expi293 cells (Q8N423 22-597 limits assumed): as the sequence (Q8N423 22-597 limits assumed) above
In the case of B3, the EC50 came to 1.3 nM.

In the next experiment the target is LILRB1 on transiently transfected Expi293 cells (human, UniProt Q8NHL6 24-650). In words: flow cytometry, transfected Expi293 cells. How it is done:
as §2
Molecule B3 came in with an EC50 of 1.5 nM. This lies in the single-digit nanomolar range.

The next experiment addresses T4, recombinant LILRA3. In words: BLI, IgG on AHC sensor, ECD in solution; biochemical assay, monovalent KD on recombinant protein (Table 2): weak off-target binding, 575 nM. How it is done: as §1
With B3, the Kd came out at 575 nM.

Another experiment has as its target LILRB2 on primary monocytes (human) (UniProt Q8N423). In words: flow cytometry, primary monocytes.
As for B2, the EC50 turned out to be 1 nM.

For a further experiment, the target named is T1, recombinant LILRB2 ECD. In words: ELISA, LILRB2 ECD binding to HLA-G-Fc. How it is done: (§3) HLA-G inhibition was tested by ELISA. 384-well Maxisorp plates were coated with 2 ug/mL B2M-HLA-G fused to a mouse IgG2a-Fc and the plates were blocked with 2% (w/v) BSA in PBST. […] 15 ul of the antibody dilution series (300 nM to 0.3 nM) were mixed with 30 μL of the pre-mixed LILRB/Avidin-HRP solution (final antibody concentration 100 nM to 0.1 nM) and incubated for 1 h at room temperature. After three wash cycles with PBST, 20 μL of the antibody/LILRB/Avidin-HRP solution was transferred to the plate with immobilized HLA-G and incubated for 15 min at room temperature. After three wash cycles with PBST, residual LILRB binding to HLA-G was detected by developing the ELISA with TMB substrate.
Turning to B1, the IC50 is 4.7 nM.
Take B3: the IC50 is 3.5 nM.
With B4, the concentration for half-maximal inhibition (IC50) was 4.6 nM.
Turning to B5, the IC50 was determined as 3.4 nM.
As for B6, the IC50 worked out at 7 nM.
Still for that read-out and setting: the same measure for B7: 2.4 nM; for B8: 4.4 nM.
On to B9, for which the IC50 came to 4.1 nM.
The same measure, in the same setting: the same measure for B2: 3.1 nM.

The target of a further experiment is T2, recombinant LILRB1 ECD. In words: ELISA, LILRB1 ECD binding to HLA-G-Fc. How it is done:
as §3
Background: An ELISA detects its analyte on a solid surface through an enzyme-linked reagent.
In the case of B1, the IC50 was determined as 5.7 nM.
Same read-out and setting: the same measure for B3: 2.1 nM; for B4: 1.9 nM; for B5: 2.2 nM.
On the same count and under the same terms, in the case of B6 it was 2.1 nM; in that of B7, 2 nM.
The same measure, in the same setting: in the case of B8 it was 1.5 nM.
Take B9: the 50% inhibitory concentration (IC50) was found to be 2 nM.

For another experiment, the target named is T3, recombinant LILRA1 ECD. Nature of the experiment: BLI, IgG on AHC sensor, ECD in solution; biochemical assay, monovalent KD on recombinant protein (Table 2): weak off-target binding, 962 nM. How it is done:
as §1
Regarding B3, the equilibrium dissociation constant (Kd) was found to be 962 nM.
